In article PMC10683472, “Deep Learning-Driven Library Design for the De Novo Discovery of Bioactive Thiopeptides” (ACS Central Science, 2023) one finds Library fraction and Raw reads data, which are given here for 70 sequences.

Where no end group is shown, it is not given here.

The target in the test is T1, TLR10 (Homo sapiens, UniProt Q9BXR5).
T1 sequence (Q9BXR5 20-576): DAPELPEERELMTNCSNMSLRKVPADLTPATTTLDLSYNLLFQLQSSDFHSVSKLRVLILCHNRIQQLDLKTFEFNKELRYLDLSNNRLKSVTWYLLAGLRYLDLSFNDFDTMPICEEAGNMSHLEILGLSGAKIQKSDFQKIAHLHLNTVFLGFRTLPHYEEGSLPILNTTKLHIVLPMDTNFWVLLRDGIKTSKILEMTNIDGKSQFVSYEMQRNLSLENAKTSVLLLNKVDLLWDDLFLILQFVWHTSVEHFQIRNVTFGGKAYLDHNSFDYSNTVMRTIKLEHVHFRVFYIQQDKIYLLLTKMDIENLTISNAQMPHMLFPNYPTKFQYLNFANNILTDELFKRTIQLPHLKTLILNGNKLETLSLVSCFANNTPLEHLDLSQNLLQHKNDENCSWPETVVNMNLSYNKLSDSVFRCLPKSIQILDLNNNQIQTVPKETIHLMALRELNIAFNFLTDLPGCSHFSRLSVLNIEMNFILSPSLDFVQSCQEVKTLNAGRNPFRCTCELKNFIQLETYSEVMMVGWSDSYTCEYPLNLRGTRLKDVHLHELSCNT
Briefly: mRNA display affinity selection against TLR10, NGS abundance. More on the design: Chimera protein (extracellular domain, amino acid 20-576;); Fc (chimera); purchased R&D system #6619-TR-050. It counts as binding. The settings on record: Top100 selection hits, NGS.

Where the note is “TLR10 selection pulldown (-)”, AEIHAWGLRI returned a Library fraction of 0.00117 and a Raw reads of 139.
As for AFQRRDDFRWVI, under “TLR10 selection pulldown (+)”, the Library fraction turned out to be 0.00019 and the Raw reads stood at 19.
Where the note is “TLR10 selection pulldown (+)”, AINFELTNKIAF came in with a Library fraction of 0.008 and a Raw reads of 804. Under “TLR10 selection pulldown (-)”, this sequence gave a Library fraction of 0.013 and a Raw reads of 1556.
Where the note is “TLR10 selection pulldown (+)”, AIRFSNVLAL showed a Library fraction of 0.00022 and a Raw reads of 21.
Where the note is “TLR10 selection pulldown (-)”, AIYNRYGGNIAS gave a Library fraction of 0.00153 and a Raw reads of 182.
Where the note is “TLR10 selection pulldown (+)”, AIYYSRLNKVAF displayed a Library fraction of 0.00018 and a Raw reads of 18.
Under “TLR10 selection pulldown (+)”, AKLIYRTQGIMG showed a Library fraction of 0.00211 and a Raw reads of 206.
Regarding ALELKHVVVV, for the setting “TLR10 selection pulldown (+)”, the Library fraction stood at 0.00049 and the Raw reads was determined as 48.
As for ALKFELLRKVAF, under “TLR10 selection pulldown (-)”, the Library fraction came to 0.00278 and the Raw reads was found to be 332.
On to ALLIKQTNMLYC, for which, where the note is “TLR10 selection pulldown (+)”, the Library fraction is reported as 0.023 and the Raw reads amounted to 2215. In addition, for the setting “TLR10 selection pulldown (-)”, the Library fraction amounted to 0.018 and the Raw reads was 2188.
Consider ALRFPHLGMMAF, for which, where the note is “TLR10 selection pulldown (+)”, the Library fraction stood at 0.00026 and the Raw reads is given as 25.
For ALVTQHVNVY, where the note is “TLR10 selection pulldown (-)”, the Library fraction was found to be 0.00162 and the Raw reads is given as 193.
For the setting “TLR10 selection pulldown (-)”, AMKLSARYIAF displayed a Library fraction of 0.00072 and a Raw reads of 86.
Regarding ANYHGNVPWSC, where the note is “TLR10 selection pulldown (-)”, the Library fraction stood at 0.00047 and the Raw reads was 56.
In the case of AQMYPIQNKIAF, the Library fraction (TLR10 selection pulldown (+)) turned out to be 0.00064 and the Library fraction (TLR10 selection pulldown (-)) is 0.00063. Further, the Raw reads (TLR10 selection pulldown (+)) was 62 and the Raw reads (TLR10 selection pulldown (-)) was 75.
For ASFVIGQLLVN, for the setting “TLR10 selection pulldown (-)”, the Library fraction stood at 0.00055 and the Raw reads came out at 66.
On to ASINRYGGNAAS, for which the Library fraction stood at 0.077 (TLR10 selection pulldown (+)) and 0.042 (TLR10 selection pulldown (-)). In addition, the Raw reads is, setting by setting: (TLR10 selection pulldown (+)) 7526; (TLR10 selection pulldown (-)) 4957.
Under “TLR10 selection pulldown (-)”, ATIDLQLRRLTL gave a Library fraction of 0.00067 and a Raw reads of 80.
Turning to AVEFRLQRAIAY, under “TLR10 selection pulldown (+)”, the Library fraction amounted to 0.00163 and the Raw reads was found to be 159. In addition, for the setting “TLR10 selection pulldown (-)”, the Library fraction is 0.00093 and the Raw reads came to 111.
For the sequence AVEFSNAVVM, where the note is “TLR10 selection pulldown (-)”, the Library fraction was found to be 0.00055 and the Raw reads is listed as 66.
For AVIVWAKQGIKG, where the note is “TLR10 selection pulldown (+)”, the Library fraction is on record as 0.0006 and the Raw reads is reported as 58.
Under “TLR10 selection pulldown (+)”, AVRNKYGGNAAS had a Library fraction of 0.054 and a Raw reads of 5293. For the same sequence, where the note is “TLR10 selection pulldown (-)”, the Library fraction is recorded as 0.012 and the Raw reads is recorded as 1475.
On to CESCCYVIDFEF, for which, for the setting “TLR10 selection pulldown (-)”, the Library fraction came out at 0.00343 and the Raw reads is recorded as 409.
Where the note is “TLR10 selection pulldown (-)”, CIIFVRQNKCAF registered a Library fraction of 0.00053 and a Raw reads of 63.
Where the note is “TLR10 selection pulldown (-)”, CITFQLTRKVAF (not fully specified) had a Library fraction of 0.00554 and a Raw reads of 661.
Under “TLR10 selection pulldown (+)”, CLGISNRIVVV displayed a Library fraction of 0.00017 and a Raw reads of 17.
With CLPFPLQMRIAY, where the note is “TLR10 selection pulldown (+)”, the Library fraction was 0.00022 and the Raw reads is recorded as 21.
Consider CMIFHTQLKIAF, for which the Library fraction is 0.00053 (TLR10 selection pulldown (+)) and 0.004 (TLR10 selection pulldown (-)). The Raw reads is, setting by setting: (TLR10 selection pulldown (+)) 52; (TLR10 selection pulldown (-)) 470.
Under “TLR10 selection pulldown (-)”, CMSFYLQRKIAI showed a Library fraction of 0.00142 and a Raw reads of 169.
Take CNPYRGNIGW: the Library fraction is, setting by setting: (TLR10 selection pulldown (+)) 0.006; (TLR10 selection pulldown (-)) 0.016. The Raw reads by setting is: (TLR10 selection pulldown (+)) 614; (TLR10 selection pulldown (-)) 1871.
Where the note is “TLR10 selection pulldown (-)”, CVFFPHLNKIAL showed a Library fraction of 0.022 and a Raw reads of 2623.
Under “TLR10 selection pulldown (-)”, CVHFCWQRKLAY came in with a Library fraction of 0.00152 and a Raw reads of 181.
Where the note is “TLR10 selection pulldown (+)”, CVLVNNRYLVH registered a Library fraction of 0.00056 and a Raw reads of 55.
Under “TLR10 selection pulldown (+)”, FRGVLIRSS gave a Library fraction of 0.00018 and a Raw reads of 18.
Where the note is “TLR10 selection pulldown (+)”, FVLNGRYLVM gave a Library fraction of 0.0007 and a Raw reads of 68.
Consider GCLHGNVPVYY, for which the Library fraction is given as 0.00224 (TLR10 selection pulldown (+)) and 0.00272 (TLR10 selection pulldown (-)). Also, the Raw reads was determined as 218 (TLR10 selection pulldown (+)) and 324 (TLR10 selection pulldown (-)).
Where the note is “TLR10 selection pulldown (+)”, GDLRGNVCMWL had a Library fraction of 0.00021 and a Raw reads of 20.
For the setting “TLR10 selection pulldown (-)”, GLLHGNVPTWI displayed a Library fraction of 0.002 and a Raw reads of 232.
Under “TLR10 selection pulldown (+)”, GLVINKRWYVHL returned a Library fraction of 0.00058 and a Raw reads of 57. Where the note is “TLR10 selection pulldown (-)”, this sequence had a Library fraction of 0.00054 and a Raw reads of 64.
For GTGLNRYGGINY, where the note is “TLR10 selection pulldown (+)”, the Library fraction is recorded as 0.023 and the Raw reads came to 2231. Moreover, for the setting “TLR10 selection pulldown (-)”, the Library fraction is on record as 0.00739 and the Raw reads came out at 882.
Where the note is “TLR10 selection pulldown (-)”, GVGNRYGGHAGT yielded a Library fraction of 0.0009 and a Raw reads of 107.
For the sequence GVRLNGVIFVSV, where the note is “TLR10 selection pulldown (+)”, the Library fraction was found to be 0.00024 and the Raw reads was found to be 23.
Where the note is “TLR10 selection pulldown (+)”, GYAVGKLLIRV showed a Library fraction of 0.00026 and a Raw reads of 25.
As for ICFVYVRSS, for the setting “TLR10 selection pulldown (+)”, the Library fraction was determined as 0.00028 and the Raw reads worked out at 27.
IGKTYVASS: under “TLR10 selection pulldown (-)”, the Library fraction was 0.00089 and the Raw reads came to 106.
For the setting “TLR10 selection pulldown (+)”, IGKTYVKSC showed a Library fraction of 0.00027 and a Raw reads of 26.
Under “TLR10 selection pulldown (-)”, IGKVYVHSS yielded a Library fraction of 0.00092 and a Raw reads of 110.
As to IGLVRIKSS, for the setting “TLR10 selection pulldown (+)”, the Library fraction amounted to 0.0012 and the Raw reads came out at 117. Besides, where the note is “TLR10 selection pulldown (-)”, the Library fraction stood at 0.00155 and the Raw reads is 185.
For the setting “TLR10 selection pulldown (-)”, IGLVRVVSS came in with a Library fraction of 0.00658 and a Raw reads of 785.
With IGNTYVASS, where the note is “TLR10 selection pulldown (+)”, the Library fraction turned out to be 0.00022 and the Raw reads was determined as 21.
For the sequence IGNVCIRSS, under “TLR10 selection pulldown (-)”, the Library fraction came out at 0.0008 and the Raw reads turned out to be 96.
With IGNVCVVSS, the Library fraction reads like this: (TLR10 selection pulldown (+)) 0.007; (TLR10 selection pulldown (-)) 0.004. The Raw reads (TLR10 selection pulldown (+)) is on record as 660 and the Raw reads (TLR10 selection pulldown (-)) is on record as 475.
Where the note is “TLR10 selection pulldown (-)”, IGRLFVKSS had a Library fraction of 0.00284 and a Raw reads of 339.
In the case of IGRLYIKSS, where the note is “TLR10 selection pulldown (+)”, the Library fraction worked out at 0.003 and the Raw reads was 304. For the same sequence, where the note is “TLR10 selection pulldown (-)”, the Library fraction worked out at 0.00136 and the Raw reads came to 162.
For the sequence IGRVCIRSS, for the setting “TLR10 selection pulldown (-)”, the Library fraction turned out to be 0.00147 and the Raw reads came to 175.
Where the note is “TLR10 selection pulldown (+)”, IGRVMIKSS came in with a Library fraction of 0.008 and a Raw reads of 778. Under “TLR10 selection pulldown (-)”, this sequence displayed a Library fraction of 0.007 and a Raw reads of 870.
Under “TLR10 selection pulldown (-)”, IGRVWVQSS displayed a Library fraction of 0.002 and a Raw reads of 250.
For the sequence IGSVFIKSS, for the setting “TLR10 selection pulldown (+)”, the Library fraction was 0.00365 and the Raw reads worked out at 356. Where the note is “TLR10 selection pulldown (-)”, this sequence registered a Library fraction of 0.003 and a Raw reads of 375.
Take LGNVYIRSS: under “TLR10 selection pulldown (+)”, the Library fraction amounted to 0.00075 and the Raw reads was 73.
For MIRMDRLRVL, in that order: 0.00023 and 22.
For MMSRGMRWVL, in that order: 0.00019 and 19.
Turning to MNPYSGNIVV, for the setting “TLR10 selection pulldown (+)”, the Library fraction stood at 0.00022 and the Raw reads is reported as 21.
Turning to RIETARLVIL, the Library fraction runs as follows: (TLR10 selection pulldown (+)) 0.00074; (TLR10 selection pulldown (-)) 0.00141. The Raw reads worked out at 72 (TLR10 selection pulldown (+)) and 168 (TLR10 selection pulldown (-)).
As for RIETRCYVLH, under “TLR10 selection pulldown (-)”, the Library fraction is 0.0006 and the Raw reads came to 72.
Take RILFARQNLAAF: under “TLR10 selection pulldown (-)”, the Library fraction was determined as 0.00283 and the Raw reads came to 338.
Regarding RILFPLQNSIAF, for the setting “TLR10 selection pulldown (+)”, the Library fraction was found to be 0.00041 and the Raw reads was found to be 40.
For the setting “TLR10 selection pulldown (-)”, RMMFHLLNQIAY returned a Library fraction of 0.00358 and a Raw reads of 427.
With RMSLNTRYIAF, under “TLR10 selection pulldown (+)”, the Library fraction was determined as 0.00031 and the Raw reads is given as 30.
Regarding RNPYSGNIAI, where the note is “TLR10 selection pulldown (+)”, the Library fraction is 0.00557 and the Raw reads amounted to 543. Under “TLR10 selection pulldown (-)”, this sequence displayed a Library fraction of 0.00067 and a Raw reads of 80.
Where the note is “TLR10 selection pulldown (-)”, RSPIPSWG came in with a Library fraction of 0.00043 and a Raw reads of 51.
